Measured values as given in US12497460B2, “Anti-MSR1 antibodies and methods of use thereof” (REGENERON PHARMACEUTICALS, INC., priority 2018, dated 2025).

T1: MSR1 on differentiated THP-1 cells (Homo sapiens, UniProt P21757)
T1 construct: endogenous in cells; host or cells: THP-1 cells differentiated with PMA
T1 sequence (P21757 1-451): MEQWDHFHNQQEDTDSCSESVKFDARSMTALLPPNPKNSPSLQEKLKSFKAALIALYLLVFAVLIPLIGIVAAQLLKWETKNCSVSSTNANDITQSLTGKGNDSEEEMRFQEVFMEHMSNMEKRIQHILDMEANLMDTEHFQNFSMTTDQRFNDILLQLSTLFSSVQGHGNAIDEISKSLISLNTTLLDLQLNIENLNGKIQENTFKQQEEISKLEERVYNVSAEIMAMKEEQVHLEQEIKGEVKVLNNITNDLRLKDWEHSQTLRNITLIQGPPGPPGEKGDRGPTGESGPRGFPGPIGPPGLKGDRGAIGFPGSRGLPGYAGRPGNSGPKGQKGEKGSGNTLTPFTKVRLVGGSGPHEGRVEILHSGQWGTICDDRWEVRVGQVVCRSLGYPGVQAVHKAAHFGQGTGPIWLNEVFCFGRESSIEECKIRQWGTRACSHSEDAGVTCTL

T2: MSR1-mediated Dil-AcLDL uptake in HEK293.Myc.hMSR1 cells (Homo sapiens, UniProt P21757)
T2 construct: expressed in transfected cells; host or cells: HEK293 (lentiviral transduction, hygromycin selection)
T2 sequence (P21757 1-451): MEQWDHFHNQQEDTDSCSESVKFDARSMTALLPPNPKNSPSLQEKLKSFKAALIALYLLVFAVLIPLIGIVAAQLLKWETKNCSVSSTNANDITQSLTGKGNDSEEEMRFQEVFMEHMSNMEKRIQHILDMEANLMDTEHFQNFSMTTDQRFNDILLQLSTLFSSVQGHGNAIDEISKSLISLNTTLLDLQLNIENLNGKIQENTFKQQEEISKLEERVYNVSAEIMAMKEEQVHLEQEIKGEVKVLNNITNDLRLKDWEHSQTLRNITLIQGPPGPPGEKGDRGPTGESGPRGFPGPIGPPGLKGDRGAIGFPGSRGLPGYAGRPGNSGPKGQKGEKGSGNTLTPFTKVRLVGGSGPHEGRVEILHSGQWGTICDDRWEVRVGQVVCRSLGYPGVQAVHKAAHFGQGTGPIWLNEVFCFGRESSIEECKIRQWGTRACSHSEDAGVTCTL


Columns and labels:
[1] = biological target: T1, MSR1 on differentiated THP-1 cells; assay: Binding and internalization of cell-surface expressed MSR1 in differentiated THP-1 cells; type: cell-based; details: 10 μg/mL antibody; for Total Binding at 37° C. / Total Internalized RFU: 37° C.
Protocol: Exemplary anti-MSR1 antibodies were assessed for their ability to bind and internalize MSR1 on MSR1-expressing cells.
The THP-1 cells were allowed to differentiate for 4 days at 37° C. in 5% CO2. […] The remaining two plates were incubated at 37° C. for 1 hour followed by fixation and staining for 20 minutes using a solution of 4% PFA+5 μM DRAQ5 diluted in PBS (internalization plates). After fixation, all plates were washed once with PBS. […] The remaining plates were incubated with PBS only. Confocal images were acquired on the Opera Phenix (Perkin Elmer) at 40× magnification. […] The total binding at 4° C. (RFU values of 4° C. unquenched wells), total binding at 37° C. (RFU values of 37° C. unquenched wells), the total internalized RFU, and % Internalization were determined for each antibody as shown in Table 14.
For all calculations, background fluorescence from unstained wells was subtracted from every well. Total internalized RFU was calculated as follows: Total RFU of 37° C. unquenched samples−Surface RFU at 37° C. Surface RFU is defined as unquenched RFU at 37° C.−quenched RFU at 37° C.)/QE. QE (quenching efficiency) is defined as: 1−(Total RFU of 4° C. quenched sample/Total RFU of 4° C. unquenched sample). The % Internalization was determined from the following formula: (Total internalized RFU at 37° C./Total RFU at 37° C.)*100.

parental HEK293 cells = assay: Electrochemiluminescence antibody binding assay, non-specific binding control cells; type: cell-based, human
[2] = biological target: T2, MSR1-mediated Dil-AcLDL uptake in HEK293.Myc.hMSR1 cells; assay: Ligand uptake assay, Dil-AcLDL; type: cell-based; details: 10 μg/mL Dil-AcLDL; for Dil-Acetylated LDL % Inhibition: maximum inhibition; for IC50: read-out: Dil-Acetylated LDL IC50
Protocol: A bioassay was generated to assess the ability of the exemplary anti-MSR1 antibodies to regulate the uptake of certain MSR1 ligands.
Generation of MSR1-expressing cell lines for assay. […] The resulting cell line, referred to here as “HEK293.Myc.hMSR1”, was selected and maintained in DMEM containing 10% FIBS, NEAA, penicillin/streptomycin, L-glutamine, and 100 μg/mL hygromycin.
Ligand uptake assay. […] After 30 minutes, either oxidized or acetylated low-density lipoprotein (LDL) labeled with 1,1′dioctadecyl-3,3,3′,3′-tetramethylindocarbocyanine perchlorate (referred to as “Dil-OxLDL” or “Dil-AcLDL,” respectively) was added to the cells at a constant concentration of 10 μg/mL. […] Results were analyzed using nonlinear regression (4-parameter logistics) with the Prism 7 program to obtain EC50 and IC50 values. The percentage of inhibition was calculated with the Relative Fluorescent Unit (RFU) values by using the following equation: […]
In the equation, “RFUBaseline” is the fluorescence value from the cells treated with 10 μg/mL ligand without antibodies, “RFUInhibition” is the minimum fluorescence value with for a particular antibody with 10 μg/mL ligand, and “RFUBackground” is the fluorescence value from cells without any ligand or antibodies.

Row | Molecule | % Internalization [1] [%] | Total Binding at 4° C. [1] | Total Binding at 37° C. [1] | Total Internalized RFU [1] [RFU] | Ratio of 11 nM Antibody Binding Signal (RLU) to isotype control, HEK293 (parental HEK293 cells) | Dil-Acetylated LDL % Inhibition [2] | IC50 [2] [nM] | Dil-Acetylated LDL IC50 [2] | maximum inhibition of Dil-AcLDL uptake [2]
1 | H1H27729P-N297Q: anti-MSR1 antibody "made with an N297Q single point mutation in human Fcγ portion" (antibody, V domains shown) VH: QVQLVESGGGLVKPGGSLRLSCAASGFIFSDYYMSWIRQAPGKGLEWVSYISSSGTTIYGDSVKGRFTMSRDNAKNSLYLQMNSLRAEDTAVYYCARNYALFDYWGQGTLVTVSS VL: DIQMTQSPSSLSASVGDRVTITCQASQDISKYLNWYQQKPGKAPKLLIYYTSNLETGVPSRFSGSGSGTDFTFTISSLQPEDIATYYCHQSDYLPFTFGPGTKVDIKR | 57.0 | 1930685 | 6607625 | 3763127 | 3 |  |  |  | 
2 | H1H21231N-N297Q: modified version of "21231N (H1H21231N-N297Q) anti-MSR1 antibodies" with "a N297Q single point mutation" (antibody, V domains shown) VH: EVQLVESGGGLVQPGGSLRLSCAASGFTFSDHYMDWVRQAPGKGLEWVGRTRNKANSHTTEYTASVTGRFTISRDDSRNSLYLQMNSLKTEDTAVYYCVRAGIIGTLFDYWGQGTLVTVSS VL: DIQMTQFPSSLSASVGDRVTITCRASQSISSFLNWFQQKPGKAPKFLIYAASSLQSGVPSRFSGSGSGTDFTLTISSLQPEDFATYYCQQSYSSPPITFGQGTRLEIKR |  |  |  |  |  | 62% |  |  | 
3 | H1H21227N: "anti-MSR1 antibodies ... (21227N, 21231N, 21234N) were produced with the original human Fcγ portion"; "H1H" = human IgG1 Fc (antibody, V domains shown, human IgG1 Fc, "anti-MSR1 antibodies ; (21227N, 21231N, 21234N) were produced with the original human Fcγ portion"; "H1H" = human IgG1 Fc) VH: QVQLVQSGAEVKKPGASVKVSCKVSGYTLTELSIHWVRQVPGKGLEWMGGFDPEEGETIFAQEFRDRVTLTEDTSPDTAYMELSSLKSEDAAVYYCTTPRYCNNGICYDYWGQGTLVTVSS VL: DIQMTQSPSSLSASVGDRVTITCRASQSISNYLNWYQQKPGKAPKLLIYTASSLQSGVPSRFSGSGSGTDFTLTISSLQTEDFATYYCQQSYSNFPITFGQGTRLEIKR |  |  |  |  | 1 | 65% | 2.1 |  | 
4 | H1H21231N: "anti-MSR1 antibodies ... (21227N, 21231N, 21234N) were produced with the original human Fcγ portion"; "H1H" = human IgG1 Fc (antibody, V domains shown, human IgG1 Fc, "anti-MSR1 antibodies ; (21227N, 21231N, 21234N) were produced with the original human Fcγ portion"; "H1H" = human IgG1 Fc) VH: EVQLVESGGGLVQPGGSLRLSCAASGFTFSDHYMDWVRQAPGKGLEWVGRTRNKANSHTTEYTASVTGRFTISRDDSRNSLYLQMNSLKTEDTAVYYCVRAGIIGTLFDYWGQGTLVTVSS VL: DIQMTQFPSSLSASVGDRVTITCRASQSISSFLNWFQQKPGKAPKFLIYAASSLQSGVPSRFSGSGSGTDFTLTISSLQPEDFATYYCQQSYSSPPITFGQGTRLEIKR |  |  |  |  |  | 63% | 3.5 |  | 
5 | H1H21227N-N297D: "The 21227N antibody was also produced as a third version with a N297D mutation" (antibody, V domains shown) VH: QVQLVQSGAEVKKPGASVKVSCKVSGYTLTELSIHWVRQVPGKGLEWMGGFDPEEGETIFAQEFRDRVTLTEDTSPDTAYMELSSLKSEDAAVYYCTTPRYCNNGICYDYWGQGTLVTVSS VL: DIQMTQSPSSLSASVGDRVTITCRASQSISNYLNWYQQKPGKAPKLLIYTASSLQSGVPSRFSGSGSGTDFTLTISSLQTEDFATYYCQQSYSNFPITFGQGTRLEIKR |  |  |  |  | 1 |  |  |  | 
6 | H1H27731P-N297Q: one of "Twelve anti-MSR1 antibodies"; "made with an N297Q single point mutation in human Fcγ portion" (antibody, V domains shown) VH: QLQLQESGPGLVKPSETLSLTCTVSGGSISRISYYWGWIRQPPGKGLEWIGSIYDSGSTYYNPSLKSRVTISIDTSKNQFSLKLSSVTAADTAVYYCVRYSSSSAFAFDYWGQGTLVTVSS VL: DIQMTQSPSSVSASVGDRVTITCRASQGISSWLAWYQQKPGKAPKLLIYAASSLQSGVPSRFSGSGSGTDFTLTISSLQPEDFATYYCQQANSFPFTFGPGTKVDIKR | 54.2 | 1215319 | 1802404 | 977543 | 7 |  |  |  | 
7 | H1H27754P-N297Q: one of "Twelve anti-MSR1 antibodies"; "made with an N297Q single point mutation in human Fcγ portion" (antibody, V domains shown) VH: EVQLVESGGGLVQPGGSLRLSCAASGFTFRTYAMTWVRQAPGKGLDWVSAITGDGGNTYYADSVKGRFTISRDNSKNTLYLQMNSLRAEDTAIYYCAKDQRFSFALYYFDYWGQGTLVTVSS VL: DIQMTQSPSSVSASVGDRVTITCRASQGISSWLAWYQQKPGNAPKLLIYAAFSLQSGVPSRFSGSGSGTDFTLTISSLQPEDFATYYCQQANNFPWTFGQGTKVEIKR | 90.0 | 3077308 | 7161570 | 6446236 | 18 |  |  |  | 
8 | H1H27747P-N297Q (antibody, V domains shown) VH: QVQLVESGGAVVQPGRSLRLSCAASGFTFSYYGMHWVRQAPGKGLEWVAVISYDGSKKYYADSVKGRFTISRDNSKNTLYLQMNSLRAEDTAVYYCAKDLTVDFYYGMDVWGQGTTVTVSS VL: DIQMTQSPSSVSASVGDRVTITCRASQGISSWLAWYQQKPGKAPKLLIYATSSLQSGAPSRFSGSGSGTDFTLTISSLQPEDFATYFCQQANSFPYTFGQGTKLEIKR | 58.2 | 2518361 | 5917858 | 3444330 |  |  |  |  | 
9 | H1H27739P-N297Q: anti-MSR1 antibody "made with an N297Q single point mutation in human Fcγ portion" (antibody, V domains shown) VH: EVQLVESGGGLVQPGGSLRLSCTASGFTFSSYAMSWVRQAPGKGLEWVSAISGTGSSTYFTDSVKGRFAISRDNSKNTLYLQMNSLRAEDTAVYYCAKDGEWLSTVTLFDYWGQGTLVTVSS VL: EIVMTQSPATLSVSPGERATLSCRASQSVSSNLAWYQQKPGQAPRLLIYGASTRATGIPARFSGSGSGTDFTLTISSLQSEDFALYYCQQYFIWPPHPTFGPGTKVDIKR | 71.6 | 3702857 | 5608380 | 4016378 |  | no inhibition |  | no inhibition | no inhibition
